These are literature values, as cited in article PMC9221339.

The target of this data set is IGF-II (Homo sapiens) (UniProt P01344).
IGF-II (Homo sapiens), sequence (P01344 25-91): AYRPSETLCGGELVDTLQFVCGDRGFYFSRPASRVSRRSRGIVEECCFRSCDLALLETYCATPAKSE

IGF-1R, sequence (P08069 31-736): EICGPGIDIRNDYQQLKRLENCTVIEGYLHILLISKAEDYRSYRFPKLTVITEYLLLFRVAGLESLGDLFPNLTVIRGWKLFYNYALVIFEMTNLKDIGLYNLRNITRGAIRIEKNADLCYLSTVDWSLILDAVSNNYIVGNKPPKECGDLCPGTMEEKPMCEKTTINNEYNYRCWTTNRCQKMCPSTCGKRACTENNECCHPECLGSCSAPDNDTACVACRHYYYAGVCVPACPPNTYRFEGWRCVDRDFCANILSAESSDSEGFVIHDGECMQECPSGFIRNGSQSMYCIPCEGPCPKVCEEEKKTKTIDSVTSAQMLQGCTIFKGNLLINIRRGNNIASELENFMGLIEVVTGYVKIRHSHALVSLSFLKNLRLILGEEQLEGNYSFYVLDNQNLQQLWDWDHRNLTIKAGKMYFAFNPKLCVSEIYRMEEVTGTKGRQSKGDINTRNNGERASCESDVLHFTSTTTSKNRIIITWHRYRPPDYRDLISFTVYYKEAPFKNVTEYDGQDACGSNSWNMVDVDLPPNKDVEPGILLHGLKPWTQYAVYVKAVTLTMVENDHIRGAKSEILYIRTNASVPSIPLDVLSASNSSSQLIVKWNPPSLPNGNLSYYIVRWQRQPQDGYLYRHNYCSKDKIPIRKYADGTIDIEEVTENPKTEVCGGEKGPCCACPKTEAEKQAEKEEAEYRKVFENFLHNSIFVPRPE
IGF-1R, sequence (P08069 741-935): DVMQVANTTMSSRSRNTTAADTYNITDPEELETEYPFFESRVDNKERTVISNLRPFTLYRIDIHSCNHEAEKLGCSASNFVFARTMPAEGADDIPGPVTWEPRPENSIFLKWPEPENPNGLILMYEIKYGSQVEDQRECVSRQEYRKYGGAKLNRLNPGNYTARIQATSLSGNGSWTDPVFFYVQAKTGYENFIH

In the case of IGF-1R (from UniProt P08069), the Kd was 3 nM.

One may read the Kd as the concentration at which binding is half-saturated.
